Literature values, collected in publication PMC10772121.

Key:
[1] = biological target: KIR2DL2 (Homo sapiens) (UniProt P43627); assay: ELISA
[2] = biological target: KIR2DS4 (Homo sapiens) (UniProt P43632); assay: ELISA
KIR2DS4 (Homo sapiens), sequence (P43632 22-245): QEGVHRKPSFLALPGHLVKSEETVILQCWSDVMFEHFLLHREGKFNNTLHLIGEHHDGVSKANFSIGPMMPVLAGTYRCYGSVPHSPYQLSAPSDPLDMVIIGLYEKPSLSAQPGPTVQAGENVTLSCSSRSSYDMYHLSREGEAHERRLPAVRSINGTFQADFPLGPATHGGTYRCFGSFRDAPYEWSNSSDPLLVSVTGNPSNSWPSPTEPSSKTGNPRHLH

KIR2DL2 (Homo sapiens), sequence (P43627 22-245): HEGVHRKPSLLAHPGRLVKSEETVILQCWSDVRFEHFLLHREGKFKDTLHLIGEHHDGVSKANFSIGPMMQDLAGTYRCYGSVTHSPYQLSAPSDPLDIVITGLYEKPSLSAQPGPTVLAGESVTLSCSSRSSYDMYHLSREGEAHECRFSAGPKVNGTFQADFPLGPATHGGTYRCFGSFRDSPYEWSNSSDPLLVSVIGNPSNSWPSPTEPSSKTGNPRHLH

In the case of Lirilumab, the Kd [1] is given as 0.06 nM and the Kd [2] is given as 20 nM.
